± gives the uncertainty stated by the source.
Assay: self-splicing fitness, log relative to wild type (ln ratio); higher = more splicing; Tetrahymena group I intron in knt gene, E. coli kanamycin selection, DiMSum; sequences stand for … in CUCUCU…GGAGGGAAAAGUUAUCAGGCAUGCACCUGGUAGCUAGUCUUUAAACCAAUAGAUUGCAUCGGUUUAAAAGGCAAGACCGUCAAAUUGCGGGAAAGGGGUCAACAGCCGUUCAGUACCAAGUCUCAGGGGAAACUUUGAGAUGGCCUUGCAAAGGGUAUGGUAAUAAGCUGACGGACAUGGUCCUAACCACGCAGCCAAGUCCUAAGUCAACAGAUCUUCUGUUGAUAUGGAUGCAGUUCACAGACUAAAUGUCGGUCGGGGAAGAUGUAUUCUUCUCAUAAGAUAUAGUCGGACCUCUCCUUAAUGGGAGCUAGCGGAUGAAGUGAUGCAACACUGGAGCCGCUGGGAACUAAUUUGUAUGCGAAAGUAUAUUGAUUAGUUUUGGAGUACUCGUGGUCG
Procedure, shortened: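 The eight P1ex-region nucleotides of an intron in the knt kanamycin-resistance gene on pET-22b(+) were all randomised and the library put into E. coli BL21(DE3). Six replicate transformations were grown overnight at 37°C or 30°C on LB agar with or without 25 μg/mL kanamycin, together with 100 μg/mL carbenicillin, 50 μM IPTG and 0.2% rhamnose. Colonies were pooled and amplicon-sequenced on an Illumina HiSeq 2500. Fitness from DiMSum is the error-weighted combination of wild-type-normalised replicate fold changes, kanamycin over none.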

Row | Sequence | self-splicing fitness (ln) (30 °C) | self-splicing fitness (ln) (37 °C)
1 | GUAUAGCAAUAUUACGACAC | 0.143 ± 0.091 | 0.241 ± 0.12
2 | GUAUAGCAAUAUUACGACAU | -0.233 ± 0.014 | 0.0814 ± 0.033
3 | GUAUAGCAAUAUUACGCGAA | -2.01 ± 0.36 | -0.808 ± 0.23
4 | GUAUAGCAAUAUUACGCGAC | -2.49 ± 0.3 | –
5 | GUAUAGCAAUAUUACGCGAU | -2.03 ± 0.24 | -1.73 ± 0.26
6 | GUAUAGCAAUAUUACGCGCG | -1.55 ± 0.14 | -0.678 ± 0.15
7 | GUAUAGCAAUAUUACGCGUU | -1.21 ± 0.11 | -1.33 ± 0.17
8 | GUAUAGCAAUAUUACGCUAA | -2.52 ± 0.2 | -1.57 ± 0.16
9 | GUAUAGCAAUAUUACGGACA | -2.7 ± 0.27 | -1.1 ± 0.15
10 | GUAUAGCAAUAUUACGGACU | -1.83 ± 0.16 | -1.27 ± 0.3
11 | GUAUAGCAAUAUUACGGAUA | -1.43 ± 0.27 | -1.55 ± 0.28
12 | GUAUAGCAAUAUUACGGCGA | -1.21 ± 0.097 | -0.087 ± 0.1
13 | GUAUAGCAAUAUUACGGCUC | 0.0185 ± 0.15 | 0.629 ± 0.15
14 | GUAUAGCAAUAUUACGGCUU | -0.746 ± 0.13 | 1.21 ± 0.2
15 | GUAUAGCAAUAUUACGGUCG | -2.06 ± 0.15 | 0.0791 ± 0.15
16 | GUAUAGCAAUAUUACGUCCA | -1.58 ± 0.26 | -0.506 ± 0.23
17 | GUAUAGCAAUAUUACGUCCC | -1.75 ± 0.12 | -0.594 ± 0.16
18 | GUAUAGCAAUAUUACGUCUC | -1.21 ± 0.15 | -0.282 ± 0.15
19 | GUAUAGCAAUAUUACGUUAU | -3.09 ± 0.36 | -1.99 ± 0.21
20 | GUCAAGCAAUAUUACGAGUC | -3.75 ± 0.2 | -2.87 ± 0.26
21 | GUCAAGCAAUAUUACGCAGA | -3.23 ± 0.24 | -2.79 ± 0.3
22 | GUCAAGCAAUAUUACGCAUU | -1.21 ± 0.089 | -1.02 ± 0.13
23 | GUCAAGCAAUAUUACGCGCA | -0.483 ± 0.097 | -0.0303 ± 0.11
24 | GUCAAGCAAUAUUACGCUCA | -1.42 ± 0.11 | -0.0833 ± 0.13
25 | GUCAAGCAAUAUUACGGACG | -3.64 ± 0.27 | -2.01 ± 0.13

Row | Sequence | self-splicing fitness (ln) (30 °C) | self-splicing fitness (ln) (37 °C)
26 | GUCAAGCAAUAUUACGGAGG | – | -2.5 ± 0.25
27 | GUCAAGCAAUAUUACGGAGU | -2.1 ± 0.12 | -0.536 ± 0.12
28 | GUCAAGCAAUAUUACGGAUU | -2.73 ± 0.12 | -1.12 ± 0.12
29 | GUCAAGCAAUAUUACGGCCU | -3.17 ± 0.22 | -1.34 ± 0.21
30 | GUCAAGCAAUAUUACGGGAA | -3.1 ± 0.19 | -0.398 ± 0.12
31 | GUCAAGCAAUAUUACGGGAC | -2.81 ± 0.5 | –
32 | GUCAAGCAAUAUUACGGUCC | -2.23 ± 0.27 | -1.09 ± 0.25
33 | GUCAAGCAAUAUUACGGUUG | -5.24 ± 0.39 | -3.24 ± 0.21
34 | GUCAAGCAAUAUUACGUACU | -1.98 ± 0.13 | -0.175 ± 0.12
35 | GUCAAGCAAUAUUACGUCAA | -2.48 ± 0.1 | -1.87 ± 0.11
36 | GUCAAGCAAUAUUACGUCUU | -2.96 ± 0.071 | -1.58 ± 0.066
37 | GUCAAGCAAUAUUACGUUCA | -1.13 ± 0.1 | -0.987 ± 0.16
38 | GUCAAGCAAUAUUACGUUGC | -5.11 ± 0.34 | -2.28 ± 0.21
39 | GUCAAGCAAUAUUACGUUUC | -2.79 ± 0.13 | -2.39 ± 0.16
40 | GUCCAGCAAUAUUACGACGA | -2.69 ± 0.12 | -0.712 ± 0.091
41 | GUCCAGCAAUAUUACGACGC | -0.776 ± 0.094 | 0.435 ± 0.12
42 | GUCCAGCAAUAUUACGACUU | -1.65 ± 0.078 | -0.203 ± 0.085
43 | GUCCAGCAAUAUUACGAGUG | -2.52 ± 0.11 | -1.59 ± 0.1
44 | GUCCAGCAAUAUUACGAUAA | -1.3 ± 0.087 | -0.506 ± 0.11
45 | GUCCAGCAAUAUUACGAUGC | -0.013 ± 0.081 | 0.389 ± 0.1
46 | GUCCAGCAAUAUUACGCAUC | -0.179 ± 0.089 | 0.142 ± 0.12
47 | GUCCAGCAAUAUUACGCAUG | -2.14 ± 0.079 | -1.66 ± 0.082
48 | GUCCAGCAAUAUUACGCAUU | -0.492 ± 0.053 | 0.587 ± 0.073
49 | GUCCAGCAAUAUUACGCCCA | 0.224 ± 0.26 | -0.451 ± 0.21
50 | GUCCAGCAAUAUUACGCCGC | -4.18 ± 0.33 | -2.58 ± 0.27

Row | Sequence | self-splicing fitness (ln) (30 °C) | self-splicing fitness (ln) (37 °C)
51 | GUCCAGCAAUAUUACGCCUG | -2.5 ± 0.2 | -0.12 ± 0.21
52 | GUCCAGCAAUAUUACGCGCU | -2.67 ± 0.25 | -2.51 ± 0.31
53 | GUCCAGCAAUAUUACGGACG | -2.99 ± 0.26 | -0.833 ± 0.18
54 | GUCCAGCAAUAUUACGGACU | -3.74 ± 0.29 | -3.05 ± 0.4
55 | GUCCAGCAAUAUUACGGCGU | -0.257 ± 0.078 | 0.0026 ± 0.099
56 | GUCCAGCAAUAUUACGGGGC | -4.08 ± 0.27 | -1.8 ± 0.2
57 | GUCCAGCAAUAUUACGGUGC | -0.903 ± 0.059 | -0.726 ± 0.071
58 | GUCCAGCAAUAUUACGUAAG | -0.607 ± 0.071 | -0.277 ± 0.11
59 | GUCCAGCAAUAUUACGUAAU | -0.156 ± 0.07 | 0.76 ± 0.081
60 | GUCCAGCAAUAUUACGUACC | -1.08 ± 0.15 | -1.74 ± 0.24
61 | GUCCAGCAAUAUUACGUAGG | -2.31 ± 0.13 | -1.84 ± 0.15
62 | GUCCAGCAAUAUUACGUAUG | -2.76 ± 0.1 | -1.06 ± 0.11
63 | GUCGAGCAAUAUUACGAGCU | -2 ± 0.42 | –
64 | GUCGAGCAAUAUUACGAGUA | -2.24 ± 0.45 | -1.13 ± 0.25
65 | GUCGAGCAAUAUUACGAUAA | -1.44 ± 0.26 | -0.0833 ± 0.2
66 | GUCGAGCAAUAUUACGAUAG | -4.14 ± 0.47 | –
67 | GUCGAGCAAUAUUACGAUCA | -1 ± 0.19 | -0.515 ± 0.21
68 | GUCGAGCAAUAUUACGAUUG | -4.1 ± 0.33 | -3.26 ± 0.26
69 | GUCGAGCAAUAUUACGCCCU | – | -0.627 ± 0.41
70 | GUCGAGCAAUAUUACGCGCC | -2.74 ± 0.24 | -1.87 ± 0.42
71 | GUCGAGCAAUAUUACGCUAG | -3.53 ± 0.21 | -1.93 ± 0.15
72 | GUCGAGCAAUAUUACGCUAU | -2.01 ± 0.12 | -1.36 ± 0.12
73 | GUCGAGCAAUAUUACGCUCG | -1.76 ± 0.37 | –
74 | GUCGAGCAAUAUUACGCUUA | -1.12 ± 0.13 | -0.065 ± 0.12
75 | GUCGAGCAAUAUUACGCUUG | – | -2.36 ± 0.33

Row | Sequence | self-splicing fitness (ln) (30 °C) | self-splicing fitness (ln) (37 °C)
76 | GUCGAGCAAUAUUACGGAAU | -2.48 ± 0.16 | -1.12 ± 0.14
77 | GUCGAGCAAUAUUACGGAGC | -2.93 ± 0.2 | -1.24 ± 0.15
78 | GUCGAGCAAUAUUACGGCAG | – | -2.81 ± 0.44
79 | GUCGAGCAAUAUUACGGGAA | -2.39 ± 0.34 | -1.63 ± 0.37
80 | GUCGAGCAAUAUUACGGGCG | -2.88 ± 0.11 | -1.36 ± 0.12
81 | GUCGAGCAAUAUUACGGGGC | – | -1.57 ± 0.28
82 | GUCGAGCAAUAUUACGUGGU | -3.5 ± 0.19 | -2.8 ± 0.19
83 | GUCGAGCAAUAUUACGUUUC | -2.08 ± 0.21 | -1.88 ± 0.2
84 | GUCUAGCAAUAUUACGAAGA | -3.16 ± 0.24 | -2.24 ± 0.2
85 | GUCUAGCAAUAUUACGAAGC | -1.58 ± 0.18 | -0.814 ± 0.18
86 | GUCUAGCAAUAUUACGAAUU | -1.29 ± 0.077 | -0.287 ± 0.098
87 | GUCUAGCAAUAUUACGAGAU | -3.31 ± 0.26 | -2.32 ± 0.22
88 | GUCUAGCAAUAUUACGAGUC | -1.93 ± 0.11 | -1.88 ± 0.093
89 | GUCUAGCAAUAUUACGCAAC | -1.33 ± 0.087 | -0.643 ± 0.095
90 | GUCUAGCAAUAUUACGCCGG | -3.17 ± 0.33 | -2.31 ± 0.33
91 | GUCUAGCAAUAUUACGCGGC | – | -2.87 ± 0.4
92 | GUCUAGCAAUAUUACGCUAU | -1.54 ± 0.11 | -0.228 ± 0.1
93 | GUCUAGCAAUAUUACGCUUC | -1.25 ± 0.11 | -0.47 ± 0.12
94 | GUCUAGCAAUAUUACGGAAA | -0.658 ± 0.12 | -0.44 ± 0.12
95 | GUCUAGCAAUAUUACGGGCA | -3.1 ± 0.44 | -1.43 ± 0.21
96 | GUCUAGCAAUAUUACGGGGG | -2.58 ± 0.33 | -1.46 ± 0.17
97 | GUCUAGCAAUAUUACGGUUA | -0.904 ± 0.15 | -0.443 ± 0.13
98 | GUCUAGCAAUAUUACGUGAA | -0.302 ± 0.1 | 0.449 ± 0.097
